Assay results reported in the supplement of paper PMC10567573.

B1: TFE3 (parent)
chain: FPSDHLGDLGDPFHLGLEDILMEE
B2: EIF5 (parent)
chain: KQTIGNSCKACGYRGMLDTHHKLC

Variants of: B1
Assay: protein stability index of a GFP-peptide fusion (GPS, HEK-293T) (PSI 1-6); higher = more stable
Conditions: c terminus: a fixed tail appended
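Note: lentivirally expressed fusions sorted by FACS into six bins by GFP to DsRed ratio, PSI derived from sequencing read proportions per bin multiplied by bin number.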

Row | Variant | protein stability index
1 | FRSDHLGDLGDPFHLGLEDILMEE [P2R] | 3.52
2 | FLSDHLGDLGDPFHLGLEDILMEE [P2L] | 3.37
3 | FWSDHLGDLGDPFHLGLEDILMEE [P2W] | 2.04
4 | FQSDHLGDLGDPFHLGLEDILMEE [P2Q] | 2.63
5 | FMSDHLGDLGDPFHLGLEDILMEE [P2M] | 3.25
6 | FFSDHLGDLGDPFHLGLEDILMEE [P2F] | 2.83
7 | FGSDHLGDLGDPFHLGLEDILMEE [P2G] | 3.62
8 | WPSDHLGDLGDPFHLGLEDILMEE [F1W] | 4.36
9 | FPSHHLGDLGDPFHLGLEDILMEE [D4H] | 1.91
10 | FPSPHLGDLGDPFHLGLEDILMEE [D4P] | 3.11
11 | FPSQHLGDLGDPFHLGLEDILMEE [D4Q] | 3.03
12 | FPSMHLGDLGDPFHLGLEDILMEE [D4M] | 2.77
13 | FPSCHLGDLGDPFHLGLEDILMEE [D4C] | 2.33
14 | FPSAHLGDLGDPFHLGLEDILMEE [D4A] | 2.26
15 | FPSRHLGDLGDPFHLGLEDILMEE [D4R] | 2.04
16 | FPSDHLGDLGDPFHLGLEDILMEA [E24A] | 2.64
17 | FPSDHLGDLGDPFHLGLEDILMEW [E24W] | 1.8
18 | FPSDHLGDLGDPFHLGLEDILMEF [E24F] | 1.92
19 | FPSDHLGDLGDPFHLGLEDILMER [E24R] | 2.87
20 | FPSDHLGDLGDPFHLGLEDILMEQ [E24Q] | 2.96
21 | FPSDHLGDLGDPIHLGLEDILMEE [F13I] | 4.34
22 | FPSDHLGDLGDPKHLGLEDILMEE [F13K] | 4.89
23 | FPSDHLGDLGDPWHLGLEDILMEE [F13W] | 1.76
24 | FPSDHLGDLGDPSHLGLEDILMEE [F13S] | 4.87

Variants of: B2
Assay: as above
Conditions: c terminus: a fixed tail appended

Row | Variant | protein stability index
25 | KQTIGNSCKACGYRGMLDTHHHLC [K22H] | 3.37
26 | KQTIGNSCKACGYRGMLDTHHALC [K22A] | 2.77
27 | KQTIGNSCKACGYRGMLDTHHDLC [K22D] | 3.72
28 | KQTIGNSCKACGYRGMLDTHHSLC [K22S] | 2.79
29 | KQTIGNSCKACGYRGMLDTHHGLC [K22G] | 2.52
30 | KQTIGNSCKACGYRGMLDTHHELC [K22E] | 2.96
31 | KQTIGNSCKACGYRGMLDTHHCLC [K22C] | 4.4
32 | KQTIGNSCKACGYRGMLDTHHYLC [K22Y] | 2.73
33 | KQTIGNSCKACGYRGMLDTHHVLC [K22V] | 2.77
34 | KQTIGNSCKACGYRGMLDTHHPLC [K22P] | 3.79
35 | KQTIGNSCKACGYRGMLDTHHRLC [K22R] | 2.34
36 | KQTIGNSCKACGYRGMLDTHHLLC [K22L] | 2.65
37 | KQTIGNSCKACGYRGMLDTHHFLC [K22F] | 2.46
38 | KQTIGNSCKACGYRGMLDTHHQLC [K22Q] | 2.76
39 | KQTIGNSCKACGYRGMLDTHHMLC [K22M] | 3.09
40 | KQTIGNSCKACGYRGMLDTHHNLC [K22N] | 2.93
41 | KQTIGNSCKACGYRGMLDTHHTLC [K22T] | 2.99
42 | KQTIGNSCKACGYRGMLDTHHWLC [K22W] | 2.17
43 | KQTIGNSCKACGYRGMLDTHHILC [K22I] | 2.37
44 | KQTIGNSCKACGYRGMLDTHHKAC [L23A] | 3.89
45 | KQTIGNSCKACGYRGMLDTHHKMC [L23M] | 3.42
46 | KQTIGNSCKACGYRGMLDTHHKHC [L23H] | 4.67
47 | KQTIGNSCKACGYRGMLDTHHKTC [L23T] | 4.03
48 | KQTIGNSCKACGYRGMLDTHHKGC [L23G] | 3.93

Row | Variant | protein stability index
49 | KQTIGNSCKACGYRGMLDTHHKVC [L23V] | 4.26
50 | KQTIGNSCKACGYRGMLDTHHKKC [L23K] | 3.36
51 | KQTIGNSCKACGYRGMLDTHHKDC [L23D] | 4.67
52 | KQTIGNSCKACGYRGMLDTHHKQC [L23Q] | 3.82
53 | KQTIGNSCKACGYRGMLDTHHKEC [L23E] | 4.2
54 | KQTIGNSCKACGYRGMLDTHHKCC [L23C] | 4.27
55 | KQTIGNSCKACGYRGMLDTHHKWC [L23W] | 3.91
56 | KQTIGNSCKACGYRGMLDTHHKRC [L23R] | 3.4
57 | KQTIGNSCKACGYRGMLDTHHKYC [L23Y] | 3.89
58 | KQTIGNSCKACGYRGMLDTHHKSC [L23S] | 4.18
59 | KQTIGNSCKACGYRGMLDTHHKNC [L23N] | 3.83
60 | KQTIGNSCKACGYRGMLDTHHKIC [L23I] | 2.86
61 | KQTIGNSCKACGYRGMLDTHHKPC [L23P] | 3.28
62 | KQTIGNSCKACGYRGMLDTHHKFC [L23F] | 3.64
63 | KQTIGNSCKACGYRGMLDTHQKLC [H21Q] | 2.51
64 | KQTIGNSCKACGYRGMLDTHWKLC [H21W] | 2.45
65 | KQTIGNSCKACGYRGMLDTHLKLC [H21L] | 2.77
66 | KQTIGNSCKACGYRGMLDTHSKLC [H21S] | 2.9
67 | KQTIGNSCKACGYRGMLDTHIKLC [H21I] | 2.88
68 | KQTIGNSCKACGYRGMLDTHNKLC [H21N] | 3.25
69 | KQTIGNSCKACGYRGMLDTHMKLC [H21M] | 2.89
70 | KQTIGNSCKACGYRGMLDTHPKLC [H21P] | 3.17
71 | KQTIGNSCKACGYRGMLDTHVKLC [H21V] | 3.29
72 | KQTIGNSCKACGYRGMLDTHRKLC [H21R] | 3

Row | Variant | protein stability index
73 | KQTIGNSCKACGYRGMLDTHYKLC [H21Y] | 3.32
74 | KQTIGNSCKACGYRGMLDTHKKLC [H21K] | 3.02
75 | KQTIGNSCKACGYRGMLDTHTKLC [H21T] | 3.17
76 | KQTIGNSCKACGYRGMLDTHHKLA [C24A] | 1.99
77 | KQTIGNSCKACGYRGMLDTHHKLS [C24S] | 1.89
78 | KQTIGNSCKACGYRGMLDTHHKLL [C24L] | 1.92
79 | KQTIGNSCKACGYRGMLDTHHKLH [C24H] | 1.9
80 | KQTIGNSCKACGYRGMLDTHHKLR [C24R] | 1.38
81 | KQTIGNSCKACGYRGMLDTHHKLW [C24W] | 2.21
82 | KQTIGNSCKACGYRGMLDTHHKLM [C24M] | 2.81
83 | KQTIGNSCKACGYRGMLDTHHKLT [C24T] | 1.57
84 | KQTIGNSCKACGYRGMLDTHHKLK [C24K] | 2.15
85 | KQTIGNSCKACGYRGMLDTHHKLV [C24V] | 2.35
86 | KQTIGNSCKACGYRGMLDTHHKLE [C24E] | 2.11
87 | KQTIGNSCKACGYRGMLDTHHKLQ [C24Q] | 2.22
88 | KQTIGNSCKACGYRGMLDTHHKLF [C24F] | 2.24
89 | KQTIGNSCKACGYRGMLDTHHKLD [C24D] | 2.25
90 | KQTIGNSCKACGYRGMLDTHHKLI [C24I] | 2.07
91 | KQTIGNSCKACGYRGMLDTHHKLN [C24N] | 1.91
92 | KQTIGNSCKACGYRGMLDTHHKLP [C24P] | 1.81
93 | KQTIGNSCKACGYRGMLDTHHKLY [C24Y] | 1.7
94 | KQTIGNSCKACGYRGMLDTHHKLG [C24G] | 1.63
